Test results: a protein production outcome set (Wang et al. 2014)

Test: label from the status in PepcDB records

Row | Sequence | protein production
1 | VDIMLNTADISAAAILLPVEGAQLSELRQIPAEGGPVLHMLRLDSPQFSQFGEIYFSEVLPRRVKAWKRHSLMTQLFAVPVGCIHVVLYDGREKSPTSGRLAQVTLGRPDNYRLLRIPPQVWYGFAATGDTPALVANCTDIPHRQGESERAPQDAPFIPFSWAGADLSGTPVM | not failed
2 | ALYNVDAGHRAVIFDRFRGVQDIVVGEGTHFLIPWVQKPIIFDCRSRPRNVPVITGSKDLQNVNITLRILFRPVASQLPRIFTSI | failed
3 | MSLKKYQLVIVGYGGMGSYHVTLASAADNLEVHGVFDILAEKREAAAQKGLKIYESYEAVLADEKVDAVLIATPNDSHKELAISALEAGKHVVCEKPVTMTSEDLLAIMDVAKRVNKHFMAHQNRRWDEDFLIIKEMFEQKTIGEMFHLESRVHGANGIPGDWRHLKAHGGGMVLDWGVHLLDQLLFLVDSNVKSVSANLSFALGDEVDDGFVTFITFENGITAQIEVGTTNFIKLPRWYVKGTEGTGIIHDWDLSGEIVKPTALAKTSEPTPIKAGQGLTKTMAPPSEEATNTLSLPAPAKLAPSFYNNFVDVLNNTSEPIVQNEEVYQVLKLIEAIFEAAETNRTVHSIEGHHHHHH | not failed
4 | MNTKKESALSFPSAGIESFGERLKELMGDESLRAFANAIDTSEGGVRKWFTQSTMPSFDKMVRIARRYNVNLEWLCTGEGPKFPGETAAYESVICKTEEFSEEYALIDGYHTQVSTGHGAQWDNERVRRKLAFRSKWLRYRGLQPENLRVVFAKGDSMEPTIHSGDSILVDITDANLSDGSIFVLRIGDDLFAKRVQVHIDGSITIISDNKEYREQRVPVAELGLLSVVGKVVWIGKDVK | failed
5 | MSQSPILFFQHGMGESNQNMQILAGRVASENAYVVVPNLNLLTTFLNLDPLIEVVERSASETLNDFPQSTFSVVGFSMGGILWVEVLSRNPSWLERLDALVLIGSPIQGASLARTVDLFGWGIGIAQELGRNRQYLAEKITQKIPTLVIAGSVNGGGDGVIPIESTRLNGTHFFTRNNVKHQDLPIDLIIGEKVKSFLLHPYLIPS | failed
6 | YNPWRNPQNALERRNIVLRLMLEHKMIGDELYQLLSQRPLGVQKKGQISRKYPAFIQTLQADLRRKLGEHKISSLLGA | failed
7 | MNSKSQQQEQQPIVFVTGTDTDVGKTFVSTLLVHKWKAAYWKPVQTGIESDQGDSETLKNFKIAASTWQPPIFTPTYALQKPLSPLQAMEYEPNVDIRLLDFVVPEEWSAENPLVVEGAGGVCVPITRKLEITTDLIKHLIETSGHPVYVVVVARSGLGTLNHTLLTWNHLCDNGLRSHLFGVILNGEPNEGNVQALKKFGVNIMAQVAQCTTAHDQDMELHELPSVESLMTQQDVE | failed
8 | MSAIDSQLPSSSGQDRPTDEVDRILSPGKLIILGLQHVLVMYAGAVAVPLMIGDRLGLSKEAIAMLISSDLFCCGIVTLLQCIGIGRFMGIRLPVIMSVTFAAVTPMIAIGMNPDIGLLGIFGATIAAGFITTLLAPLIGRLMPLFPPLVTGVVITSIGLSIIQVGIDWAAGGKGNPQYGNPVYLGISFAVLIFILLITRYAKGFMSNVAVLLGIVFGFLLSWMMNEVNLSGLHDASWFAIVTPMSFGMPIFDPVSILTMTAVLIIVFIESMGMFLALGEIVGRKLSSHDIIRGLRVDGVGTMIGGTFNSFPHTSFSQNVGLVSVTRVHSRWVCISSGIILILFGMVPKMAVLVASIPQFVLGGAGLVMFGMVLATGIRILSRCNYTTNRYNLYIVAISLGVGMTPTLSHDFFSKLPAVLQPLLHSGIMLATLSAVVLNVFFNGYQHHADLVKESVSDKDLKVRTVRMWLLMRKLKKNEHGE | failed
9 | DRCYNCGGLDHHAKECKLPPQPKKCHFCQSISHMVASCPLKAQQGPSAQG | not failed
10 | MTDEVSVLFVDFLLEWLEMMRTRVRETTYASYNSGIRQSIIPYFMDKKLTLTDIEENPKYLQDFYQHELSKGLSPNSVLRRHANIRKALQHAFHLGLIKSNPADRIERPKKQDYTALEHHHHHH | not failed
11 | MSLSAKSSLKEVAELAGVGYATASRALSGKGYVSPQTREKVQAAAKELNYVPNQLAKALREHRSALVGVIVPDLSNEYYSESLQTIQQDLKAAGYQMLVAEANSVQAQDVVMESLISIQAAGIIHVPVVGSIAPEGIPMVQLTRGELGPGFPRVLCDDEAGFFQLTESVLGGSGMNIAALVGEESLSTTQERMRGISHAASIYGAEVTFHFGHYSVESGEEMAQVVFNNGLPDALIVASPRLMAGVMRAFTRLNVRVPHDVVIGGYDDPEWYSFVGAGITTFVPPHEEMGKEAVRLLVDLIENPELPTGDVVLQGQVILRGSSTHEGHHHHHH | not failed
12 | MMFNYIYTTFLTILYTVVMSLSLSLYLKEREKNYLLVSLYFLLLILNGLIVTMSETFQIFANDYNQQFMVNPIIETIYYLATFGIALKLVTELFEEKITTYQYGIYIVFALWLIVVPFMANSALKVWLYYFPSQLLTVYLGIYLLIHNRKMIPKSSLGKYVKLIGSLAIFFGLAIVVEDTFIIYFRDIYHTNMLKIHNRNVSEDIFHISLCLIAIKYFLTNYQKSNEEVAVIDIRNEKKETNDSVSNFEEDEYYFERFMDKYGITQREGEILELLLQRKHNQEIANQLYLSLGTVKTHTHNIFIKLQVEKRSEVCEVWEAFEKSELTQ | failed
13 | MKLIKTIDAVGQVLCHDITQIIPGEFKGRKFKKGHIVKEEDIPVLLSLGKDNLYVWEKSEGMVHENEGALFLKELTAGENLDFSEIKEGKIDFIAACDGLLKIDVDALFDLNCVGEIMMATLHNNFIVNKGLKVAGTRVIPLVIDEKKLEDAKKVVGNRKIVNVVPFKPKKVGIVTTGNEVFYSRIVDKFGPVIEEKVKGFGCEVIGQTICPDDKEIIKSAIKEFISQGAELICCTGGMSVDPDDVTPTAIKETGADLVTYGSPILPGAMFLLAYYGEVPIMGIPGCAMYHKTTVFDIVLSRVLIDEKLDKYDIARYGHGGLCMNCDVCTYPACNFAKILEHHHHHH | failed
14 | DPEEIMQVAVEKLGQGLGICRCVIYRCSADDTVATINHEFLGSGVGSIKGYPWPLKDNPLFQEVVVLKEAIAIDNIDRDPRLGEPEPSTGEVKTLVKSCAILSWMLVPIFYRERLLGMMEFHHCGPAPTEWEDDALTLVEGVATQIGVALIQAESYANLQELNEQLAALDRTRSNLVAITGHELRTP | failed
15 | MALPESESARTEQALGRLVGSLCVVTAQQGELSSAMLASWVSQATFSPPGLTVAVAKERAIESLLHKNSCFVLNILQEGNHLGLMKHFLKPFAPGGDRFADVATETAENGAPILTESLAYLECRVQQRLECGDHWVLYAVTDRGALLKDGVTAVHHRKSGDHYLEHHHHHH | failed
16 | MLVKFWGVRGSLPAPLTPAQVQSKIAAVVQRITLKDIESQDSRERFLASLPKWLFGTIGSNTACVEVETDDGGHLIFDAGTGIRELGIDLMKRPDYGKNTTYHLFFSHFHWDHIQGLPFFNPAYDPRNKIIVYSTRKKAKEFLEDQMKYPYFPISMLGEDGFGASFEFKYIEPDQKYVEIGDTKIGWHRVRHPGGCTAYSVIEKGKKIIYSTDTELRPRDFERNEQNAEFYTDAEMLIIDAQYTLTDSILKEGWGHSTFSVAIDFAAGWNIKSIALFHHEPTYHDKKVFSLKQTADWYRDCSRAPDIKIFIAQEGRSFLI | failed
17 | MDEYEDSQSPAPSYQYPKETLRKRQNSVQNSGGSVSSRFSRKSFKLDYRLEEDVTKSKKGKDGRFVNPWPTWKNISIPNVLRWLIMEKNHSGVPGSKEELDKELPVLKPYFVSDPEDAGVREAGLRVTWLGHATLMVEMDELIFLTDPMFSSRASPSQYMGPKRFRRPPCTISELPTIDAVLISHNHYDHLDYGSVLALNERFGSELRWFVPLGLLDWMQKCGCENVIELDWWEENCVPGHDKVTFVFTPSQHWCKRTLLDDNKVLWGSWSVLGPWSRFFFAGDTGYCPAFEEIGKRFGPFDLAAIPIGAYEPRWFMKYQHADPEDAVRIHIDLQTKRSVAIHWGTFALANEHYLEPPVKLNEALERYGLSCEDFFILKHGESRYLNTDDRAFEET | failed
18 | MTFSSKLKSFCSRYFSSHEKDKYKALMKQKLLNPLSSSSPNYDEMIQENFKPHWIIGIDPNLSGALAVLKFDDKGSCSAQVNPY | failed
19 | MDSIQESDVLNAVKTKLPPCCLRIFRNKIILVGTYDLDKSTGYRSGSLDVFTMDLKLLCSNNTYGAILDLKLSPFDDTLICTAHSTGNIMLWRIRCTDKDDFQSNELDIHAIANLQLFEKDVLIASCHFSPLDCKKLLVTNTAGEAATIDIRTLSVQFTASAIAQAYSKLDKIDYEVQGATEKVIHVESGQFLKPHELECWTAEFGSLQPFQDVVFTGGDDSRIMAHDLRSKEFIWSNNRIHDAGVVSIKCSQPNFRNNKPTSIITGSYDDNIRSLDLRMMGESIFPGANVPTVNKLACDLGGGVWRFVESPIDQEQSHHNGSDRLLVCCMYNGAKVVTMNDNSDEYFQIQHYLKKGHDSMCYGGDWSNSLIATCSFYDNSLQTWIV | failed
20 | MLEIMLMVCIGALAAVMANLGIAVFNDGIRPIVPENLEGRMTRKELGVTAFAMSFGLVIGFGIPISIAGSIILIHSILLGSDIIGLALDRGKVKTTIAAIIGGLYGAGIYMGLQVVVDLFTMLPLNFVDAFNKVGDPVVVSFMVFPAIAIALQFGVKKGIIAFAIAAFARQLIVFTNGAELIKIGSTPVVLSPEGIALVVGMFLLIFFAMREKSEETNLSTLATLFTDRVARIKKHRWILMLSGGLVAAATNLLLIAGDPISLNLLAEGKMSEGGIAALAKAIGFVPLIASTAIATGVYGPIGFTFVFAAGIFAPNLGIALLIGALIIFLEIQLLTKLATFLDRYPGIRASGENIRTAMSRVLEVALLIGGANAADAIVPGFGFFAIAGFYLINEIAGRPIVRMAIGPVGAIIVGIVGNLLVLLGLYTP | failed
21 | MRAALTGGGLVLAYTAVISSADAITKLIAQGYAAPQLYAISGLIVAAISLAAARRNRARALKTVCPRAMALRALATVVASLCFFHTFRLLPFADVFVFIGLMPIMAALMSGLMLDEHARPAAWAALVAGFVGVLCLMPGGIGAIGAGHLWALGGVVTGTFSLILSRYIGRYESNALAQVFYPNLALGLSMAAALPFVWVPMPMLDLAWVGAYAALLFLARWLLVIALRLLAAYVVTPLLNLQFVWMVALGALAFGEWPAPMTWLGAAIVMVSGLYLIWDQMTPTTREQEELSLRTDP | failed
22 | MRENIIEFIPKEKPCSYLKEERSLFRYFHIEECSSDLYQALLERGWRRFGKYFFVPICKNCKACLSVRKPLANLEFSRSFKRVLSKNRQTGLVIQRPMITEAHLKLYDRYHRRMSEKKGWEYSPITMESYYEMFVEGSGEFGYEFAYYRDERLVGIALVDILERSLSAVYCFYDHDYSDFSLGIFSILKQLELAKRLKIDYFYPGYWIKNHPSMGYKERFAPYEILRNEPDIDALPEWSLQGENE | failed
23 | MEAFFRHAERVAHPSPRLRLLLALGHRMRGELDRGLAVLEGFPEEDPALLAEALLAQGTLLGLKGAHGEAEDVFSQGVALGETPLRARFLTSRGAARIRLGRYREAAEDLEEALFLSRKERLKEVEALALHNLAIARHHLGELAEAVRLYREVLPLKTAPLSRAYTLLSLGEALSYLGRFLEAKRTLFRAREEAWASGDYRAMGYTLLNLADLYREAGLPEAEGLYREAEAHLEKAHDPYALGLVHLGLARLGAKGSLERARALFQEGGSPGELAEWHLVAGRLCGRPEHFEEALRLAEKAGAGRLLLLARLELFLKAPSPGEAKALAREVLKAGFQDFWLWERAFPLPLLAFEAGEEGLLEALLAGVGWLRARSLKALEARTEEGPLPLPSRKELLLLLLLWRRKALEAEALARLLFPGSKNPKKRLQVAVHHLREALDPDLVRLEGEAYRAYLPPGVWWDARVKEGLLRWARRLSLPQAQARVEEALPGRFSPQAYLTDP | failed
